Test results as given in CN114031685A (INST MILITARY MEDICINE ACADEMY MILITARY SCIENCES PLA, dated 2022).

Legend:
[1] = biological target: 新冠病毒野生型 S蛋白 (on pseudovirus / live virus) (SARS-CoV-2, UniProt P0DTC2 14-1273); test: cell-based or functional assay
SARS-CoV-2 NTD蛋白 = biological target: T1, SARS-CoV-2 NTD蛋白 (SARS-CoV-2, UniProt P0DTC2 14-303); test: ELISA, antigen coated at 2 μg/mL
T1 construct: domain: NTD

SARS-CoV-2 WT S2蛋白 = biological target: T2, SARS-CoV-2 WT S2蛋白 (SARS-CoV-2, UniProt P0DTC2 686-1213); test: ELISA, antigen coated at 2 μg/mL
T2 construct: domain: S2

B1: 抗SARS-CoV-2全人源单克隆抗体ZW2G10 (antibody, V domains shown)
VH: EVQLVESGGGLVQPGRSLRLSCAASGFTFDDYAMHWVRQAPGKGLEWVSGITWNSGTIGYADSVKGRFIISRDNAKNSLHLQMNSLRVEDTALYYCAKDNSDYSGYYWELENYGMDVWGQGTTVTVSS
VL: QSVLTQPPSVSGAPGQRVTISCTGSSSNIGAGYDVHWYQQLPGTAPKLLIYDNNNRPSGVPDRFSGSKSGTSASLAITGLQAEDEADYYCQSFDSSLSGVVFGGGTRLTVLR
notes: also called 单抗ZW2G10
- 假病毒中和 EC50 [1]: 0.0142 µg/mL
- 真病毒中和 EC50 (Vero E6) [1]: 1.08 µg/mL
- binding result (SARS-CoV-2 NTD蛋白): no binding
- binding result (SARS-CoV-2 WT S2蛋白): no binding
